The text below walks through data of patent publication US20040191271A1 (Pfizer, published 2004).

The series concerns the molecule itself. Description: size exclusion chromatography (Superdex 200), self-association of identical subunits.

B1: Streptococcus pneumoniae undecaprenyl pyrophosphate synthase (enzyme)
chain: AVEVEVPTQVPAHIGIIMDGNGRWAKKRMQPRVFGHKAGMEALQTVTKAANKLGVKVITVYAFSTENWTRPDQEVKFIMNLPVEFYDNYVPELHANNVKIQMIGETDRLPKQTFEALTKAEELTKNNTGLILNFALNYGGRAEITQALKLISQDVLDAKINPGDITEELIGNYLFTQHLPKDLRDPDLIIRTSGELRLSNFLPWQGAYSELYFTDTLWPDFDEAALQEAILAYNRRHRRFGGV
notes: Homodimer of two identical subunits; Thrombin removed the tag before size exclusion and crystallization; also called UPS; UppS
On to B1, for which the binding result was “binds”.
